According to publication PMC5813253:

Assays:
[1] = biological target: TssK (V. cholerae (endogenous)); experiment: cryo-EM structure
[2] = biological target: VgrG trimer of the central spike (V. cholerae (endogenous)); experiment: cryo-EM structure

Substance | stoichiometry N [1] | stoichiometry N [2]
TssK (natural protein) | 3 | 
VgrG trimer of the central spike |  | 3
